First the molecules themselves.
B1: CCDC89 (parent)
chain: LNAELEEKMMQEAEKLKAQGEYSR
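Further: lentivirally expressed fusions sorted by FACS into six bins by GFP to DsRed ratio, PSI derived from sequencing read proportions per bin multiplied by bin number.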

The variants in this series derive from B1. The series is described as follows: protein stability index of a GFP-peptide fusion (GPS, HEK-293T) (PSI 1-6); higher = more stable. Particulars: c terminus: a fixed tail appended.
Regarding LNAELEEKMMQVAEKLKAQGEYSR [E12V], the protein stability index was 4.12. In the case of LNAELEEKMMQKAEKLKAQGEYSR [E12K] it was 4.67. For the variant LNAELEEKMMQEAEKLKAQCEYSR [G20C], the protein stability index turned out to be 2.96. In the case of LNAELEEKMMQEAEKLKAQYEYSR [G20Y] it was 4.44. In the case of LNAELEEKMMQEAEKLKAQPEYSR [G20P] it was 5.43; in that of LNWELEEKMMQEAEKLKAQGEYSR [A3W], 4.58.

Take LNVELEEKMMQEAEKLKAQGEYSR [A3V]: the protein stability index amounted to 5.13. With LNYELEEKMMQEAEKLKAQGEYSR [A3Y] the figure was 4.2; with LNRELEEKMMQEAEKLKAQGEYSR [A3R], 4.94. With LNLELEEKMMQEAEKLKAQGEYSR [A3L], the protein stability index turned out to be 5.02. With TNAELEEKMMQEAEKLKAQGEYSR [L1T] the figure was 4.98; with NNAELEEKMMQEAEKLKAQGEYSR [L1N], 4.97. In the case of ANAELEEKMMQEAEKLKAQGEYSR [L1A] it was 5.74; in that of LNAELEEKMMQEAEKLKAQGVYSR [E21V], 4.58; in that of LNAELEEKMMQEAEKLKAQGCYSR [E21C], 4.29.

As to LNAELEEKMMQEAEKLKAQGYYSR [E21Y], the protein stability index is 5.03. With LNAELEEKMMQEAEKLKAQGIYSR [E21I] the figure was 4.62; with LNAELEEKMMQEAEKLKAQGEYMR [S23M], 5.11; with LNAELEEKMMQEAEKLKAQGEYYR [S23Y], 4.47.

On to LNAELEEKMMQEAEKLKAQGEYTR [S23T], for which the protein stability index was 4.98.

For the variant LNACLEEKMMQEAEKLKAQGEYSR [E4C], the protein stability index was 3.98.

LNAWLEEKMMQEAEKLKAQGEYSR [E4W]: the protein stability index turned out to be 3.12. In the case of LNAMLEEKMMQEAEKLKAQGEYSR [E4M] it was 3.91; in that of LNAQLEEKMMQEAEKLKAQGEYSR [E4Q], 4.76. In the case of LNATLEEKMMQEAEKLKAQGEYSR [E4T] it was 4.3.

In the case of LNAELEEKMMQEAEKLKAQGEYSQ [R24Q], the protein stability index stood at 4.63. For LNAELEEKMMQEAEKLKAQGEYSG [R24G], the protein stability index stood at 5.81.

Turning to LNAELEEKMVQEAEKLKAQGEYSR [M10V], the protein stability index was determined as 5.13. With LNAELEEKMNQEAEKLKAQGEYSR [M10N] the figure was 5.34; with LNAELEEKMKQEAEKLKAQGEYSR [M10K], 5.08. LNAELEEKMWQEAEKLKAQGEYSR [M10W]: the protein stability index was 4.7. With LNAELEEPMMQEAEKLKAQGEYSR [K8P] the figure was 5.12; with LNAELEEIMMQEAEKLKAQGEYSR [K8I], 4.25.

As for LNAELEELMMQEAEKLKAQGEYSR [K8L], the protein stability index is 5.19. With LNAELEESMMQEAEKLKAQGEYSR [K8S], the protein stability index was found to be 3.82. In the case of LNAELEEKMMEEAEKLKAQGEYSR [Q11E] it was 5.55; in that of LNAELEEKMMREAEKLKAQGEYSR [Q11R], 4.76. In the case of LNAELEEKMMFEAEKLKAQGEYSR [Q11F], the protein stability index was determined as 4.14. Turning to LNAELEEKMMPEAEKLKAQGEYSR [Q11P], the protein stability index was 4.75. LNAELEEKMMVEAEKLKAQGEYSR [Q11V]: the protein stability index turned out to be 5.09. In the case of LNAELEEKMMIEAEKLKAQGEYSR [Q11I] it was 4.96; in that of LNAELEEKMMLEAEKLKAQGEYSR [Q11L], 3.99. Regarding LNAELEEKPMQEAEKLKAQGEYSR [M9P], the protein stability index turned out to be 5.53.

LNAELEEKMMQEAEKLKADGEYSR [Q19D]: the protein stability index was determined as 5.85.

In the case of LNAELEEKMMQEAEKLKASGEYSR [Q19S], the protein stability index is 5.19.

As for LNAELEEKMMQEAEKLKAGGEYSR [Q19G], the protein stability index is 4.95. In the case of LNAELEEKMMQEAEKLKAWGEYSR [Q19W] it was 4.62. As for LNAELEEKMMQEAEKLKAAGEYSR [Q19A], the protein stability index worked out at 5.24. With LNAELEEKMMQEAEMLKAQGEYSR [K15M] the figure was 5.82; with LNAELEEKMMQEAERLKAQGEYSR [K15R], 4.84. With LNAELEEKMMQEAEWLKAQGEYSR [K15W], the protein stability index worked out at 4.41. With LNAELEEKMMQEAEVLKAQGEYSR [K15V] the figure was 4.78; with LNAELEEKMMQEAEDLKAQGEYSR [K15D], 5.58. With LNAELEEKMMQEAEPLKAQGEYSR [K15P] the figure was 5.38; with LNAELEEKMMQEAECLKAQGEYSR [K15C], 5.03. Turning to LNAELEEKMMQEAESLKAQGEYSR [K15S], the protein stability index stood at 4.38. In the case of LNAELEEKMMQEAEKLQAQGEYSR [K17Q] it was 5.22. As for LNAELEEKMMQEAEKLGAQGEYSR [K17G], the protein stability index amounted to 4.93. With LNAELERKMMQEAEKLKAQGEYSR [E7R] the figure was 3.8; with LNAELETKMMQEAEKLKAQGEYSR [E7T], 4.74; with LNAELEFKMMQEAEKLKAQGEYSR [E7F], 4.97.

On to LNAELEHKMMQEAEKLKAQGEYSR [E7H], for which the protein stability index was found to be 4.5. With LNAELEGKMMQEAEKLKAQGEYSR [E7G] the figure was 4.35; with LNAELEEKMMQEAEKLKNQGEYSR [A18N], 5.09. With LNAELEEKMMQEAEKLKRQGEYSR [A18R] the figure was 4.31. On to LNAELEEKMMQEAEKLKFQGEYSR [A18F], for which the protein stability index turned out to be 4.28. On to LNAELEEKMMQEAEKLKPQGEYSR [A18P], for which the protein stability index was 4.7. Consider LNAELEEKMMQEAEKLKLQGEYSR [A18L], for which the protein stability index came out at 3.87. For the variant LNAELEEKMMQEAEKLKIQGEYSR [A18I], the protein stability index turned out to be 4.32. In the case of LNAELEEKMMQEAEKLKAQGEKSR [Y22K] it was 5.55; in that of LNAELEEKMMQEAEKLKAQGEESR [Y22E], 4.65; in that of LNAELEEKMMQEAEKLKAQGECSR [Y22C], 5.25. With LNAEPEEKMMQEAEKLKAQGEYSR [L5P] the figure was 5.58; with LNAESEEKMMQEAEKLKAQGEYSR [L5S], 5.38.

On to LNAEKEEKMMQEAEKLKAQGEYSR [L5K], for which the protein stability index was 4.53. In the case of LNAEDEEKMMQEAEKLKAQGEYSR [L5D], the protein stability index came to 4.71.

For the variant LNAEWEEKMMQEAEKLKAQGEYSR [L5W], the protein stability index was 4.71. With LGAELEEKMMQEAEKLKAQGEYSR [N2G] the figure was 5.14; with LAAELEEKMMQEAEKLKAQGEYSR [N2A], 4.98; with LDAELEEKMMQEAEKLKAQGEYSR [N2D], 3.11.

In the case of LMAELEEKMMQEAEKLKAQGEYSR [N2M], the protein stability index came to 4.99.

As to LNAELTEKMMQEAEKLKAQGEYSR [E6T], the protein stability index worked out at 3.27. Regarding LNAELQEKMMQEAEKLKAQGEYSR [E6Q], the protein stability index is 4.65. On to LNAELSEKMMQEAEKLKAQGEYSR [E6S], for which the protein stability index worked out at 4.96. Regarding LNAELFEKMMQEAEKLKAQGEYSR [E6F], the protein stability index came to 3.39.

Consider LNAELEEKMMQEAEKTKAQGEYSR [L16T], for which the protein stability index came to 5.14.

With LNAELEEKMMQEAEKWKAQGEYSR [L16W], the protein stability index is 4.6. In the case of LNAELEEKMMQEAEKNKAQGEYSR [L16N] it was 5.17; in that of LNAELEEKMMQEAEKPKAQGEYSR [L16P], 5.68; in that of LNAELEEKMMQEAEKSKAQGEYSR [L16S], 5.76.

With LNAELEEKMMQEYEKLKAQGEYSR [A13Y], the protein stability index was 5.28. In the case of LNAELEEKMMQEDEKLKAQGEYSR [A13D] it was 5.8. In the case of LNAELEEKMMQECEKLKAQGEYSR [A13C] it was 4.94; in that of LNAELEEKMMQEHEKLKAQGEYSR [A13H], 4.85.

The record behind these values is the supplement of paper PMC10567573.
